Residue numbers refer to the chain shown, from its start. Numbers in names are those of the source. Read-outs that look alike come from different tables or passages of the source.
Tests used:
[1] = target: Cynomologus Monkey Bv8 (Genentech; PUR21590) (cynomolgus monkey); assay: SPR (BIAcore 3000, 25 C): cynomolgus monkey Bv8 coupled to CM5 chip, IgG injected; 1:1 Langmuir fit
[2] = target: T1, recombinant human Bv8 (PeproTech) (human, UniProt Q9HC23-2 28-108, biotinylated (Sulfo-NHS-LC-biotin) in the two competition ELISAs with coated antibody); assay: SPR (BIAcore 3000, 25 C): human Bv8 coupled to CM5 chip, IgG injected; 1:1 Langmuir fit
T1 construct: Bought protein; also called HuBv8; prokineticin-2
T1 sequence (looked up): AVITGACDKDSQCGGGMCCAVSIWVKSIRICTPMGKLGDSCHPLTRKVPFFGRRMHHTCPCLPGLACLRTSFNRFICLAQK
Text: (§1) For binding affinity determinations of anti-Bv8 antibodies (Fab or IgG), Surface Plasmon Resonance (SRP) measurement with a BIAcore™-3000 instrument was used. Briefly, CM5 biosensor chip was activated with EDC and NHS reagents according to the supplier's instructions, and human Bv8 (PeproTech) or Cynomologus Monkey (Genentech; PUR21590) was coupled to achieve approximately 150 response units (RU), then following by blocking un-reacted groups with 1M ethanolamine. For kinetics measurements, two-fold serial dilutions of anti-Bv8 Fabs (0.19 nM to 25 nM) or IgGs (0.019 nM to 10 nM) were injected in HBS-P buffer (0.01M HEPES pH 7.4, 0.15M NaCl, 0.005% surfactant P20) at 25° C. with a flow rate of 30 μl/min. Association rates (kₒₙ) and dissociation rates (koff) were calculated using a simple one-to-one Langmuir binding model (BIAcore Evaluation Software version 3.2). The equilibrium dissociation constant (Kd) was calculated as the ratio koff/kₒₙ.

[3] = target: T1, recombinant human Bv8 (PeproTech); assay: competitive ELISA: antibody in serial dilution mixed with biotinylated human Bv8 (57 pM) and put on plate coated with mouse 2G9 IgG1 (m5, the competitor); streptavidin-HRP, OD 450/620; four-parameter fit
Experimental: Maxisorp 384 well plates were coated with 1 μg/ml parent mouse 2G9 IgG1 antibody at 25 μl/well in 50 mM sodium carbonate buffer, pH 9.6, at 4° C. overnight. Plates were washed with phosphate buffered saline (PBS) containing 0.05% polysorbate, pH 7.4 and blocked with PBS containing 0.5% BSA, 10 ppm Proclin, pH 7.4, at 80 μL1/well. After one-hour incubation at room temperature, plates were washed. A mixture of serially diluted humanized 2G9 antibodies (0.11 pM-180 nM) in PBS containing 0.5% BSA, 0.05% polysorbate 20, pH 7.4 and biotinylated human Bv8 (final concentration 0.5 ng/ml or 57 pM) were added at 25 μL1/well. After two hour incubation, plates were washed and horseradish peroxidase conjugated streptavidin (GE Healthcare) was added. After a final 30 minute incubation, plates were washed and the substrate 3,3′,5,5′-tetramethyl benzidine (Kirkegaard & Perry Laboratories) was added. The reaction was stopped by adding 1 M phosphoric acid and absorbance was read at 450 nm on a Multiskan Ascent reader (Thermo Scientific, Hudson, N.H.). For data analysis, the titration curves were fitted using a four-parameter nonlinear regression curve-fitting program and the IC₅₀ concentrations were determined (KaleidaGraph, Synergy Software, Reading, Pa.).

[4] = target: T1, recombinant human Bv8 (PeproTech); assay: phage competition ELISA: Fab-displaying phage preincubated with serially diluted soluble human Bv8 (the concentration on the axis), unbound phage captured on plate-coated human Bv8, anti-M13-HRP; bound phage in %
Experimental: (§2) MAXISORP™ microtiter plates were coated with recombinant human Bv8 (PeproTech) at 2 μg/ml in PBS overnight and then blocked with PBST buffer (0.5% BSA and 0.05% Tween 20 in PBS) for an hour at room temperature (RT). Phage from culture supernatants were incubated with serially diluted human Bv8 in PBST buffer in a tissue-culture microtiter plate for an hour at RT, after which 80 μl of the mixture was transferred to the target-coated wells for 15 minutes to capture unbound phage. The plate was washed with PBT buffer (0.05% Tween 20 in PBS), and HRP-conjugated anti-M13 (Amersham Pharmacia Biotech) was added (1:5000 in PBST buffer) for 40 minutes. The plate was washed with PBT buffer and developed by adding tetramethylbenzidine substrate (Kirkegaard and Perry Laboratories, Gaithersburg, Md.). The absorbance at 450 nm was plotted as a function of target concentration in solution to determine phage IC₅₀.

[5] = target: T1, recombinant human Bv8 (PeproTech); assay: as above; remark: listed apart in the source
Experimental: as §2

[6] = target: T1, recombinant human Bv8 (PeproTech); assay: SPR (BIAcore 3000, 25 C): human Bv8 coupled to CM5 chip, Fab injected; 1:1 Langmuir fit; N=3
Text: as §1

[7] = target: Cynomologus Monkey Bv8 (Genentech; PUR21590) (cynomolgus monkey); assay: SPR (BIAcore 3000, 25 C): cynomolgus monkey Bv8 coupled to CM5 chip, IgG injected; 1:1 Langmuir fit; remark: listed apart in the source
[8] = target: T1, recombinant human Bv8 (PeproTech); assay: SPR (BIAcore 3000, 25 C): human Bv8 coupled to CM5 chip, IgG injected; 1:1 Langmuir fit; off-rate followed for 30 min
Text: as §1

[9] = target: Cynomologus Monkey Bv8 (Genentech; PUR21590) (cynomolgus monkey); assay: SPR (BIAcore 3000, 25 C): cynomolgus monkey Bv8 coupled to CM5 chip, IgG injected; 1:1 Langmuir fit; off-rate followed for 30 min
[10] = target: T1, recombinant human Bv8 (PeproTech); assay: SPR (BIAcore 3000, 25 C): human Bv8 coupled to CM5 chip, IgG injected; 1:1 Langmuir fit; remark: listed apart in the source
Text: as §1

[11] = target: T1, recombinant human Bv8 (PeproTech); assay: SPR, BIAcore-3000, Bv8 coupled to CM5 chip, IgG (FIG. 21)
Text: as §1

[12] = target: T1, recombinant human Bv8 (PeproTech); assay: SPR (BIAcore 3000, 25 C): human Bv8 coupled to CM5 chip, IgG injected; 1:1 Langmuir fit; off-rate followed for 30 min; remark: listed apart in the source
Text: as §1

[13] = target: Cynomologus Monkey Bv8 (Genentech; PUR21590) (cynomolgus monkey); assay: SPR, BIAcore-3000, Bv8 coupled to CM5 chip, IgG (FIG. 21)
[14] = target: Cynomologus Monkey Bv8 (Genentech; PUR21590) (cynomolgus monkey); assay: SPR (BIAcore 3000, 25 C): cynomolgus monkey Bv8 coupled to CM5 chip, Fab injected; 1:1 Langmuir fit
[15] = target: T1, recombinant human Bv8 (PeproTech); assay: SPR (BIAcore 3000, 25 C): human Bv8 coupled to CM5 chip, Fab injected; 1:1 Langmuir fit
Text: as §1

B1: h2G9.K4G1.Polish IgG (antibody, V domains shown)
VH: EVQLVQSGAEVKKPGASVKVSCKASGYSFTDYDMHWVRQAPGQGLEWIGYISSYSGATTYNQKFKGRVTITVDKSTSTAYLELSSLRSEDTAVYYCARDSNYGEAYAMDYWGQGTLVTVSS
VL: DIVMTQSPDSLAVSLGERATINCKASQSVDYSGDSYMNWYQQKPGQPPKLLIYAASNLESGVPDRFSGSGSGTDFTLTISSLQAEDVAVYYCQQINEDPFTFGQGTKVEIK
notes: IgG; constant regions not described for the humanized antibodies; also called parental polished K4G1 molecule
- Kd [1]: 0.03 nM
- koff [1]: 1.5e-05 s⁻¹
- kon [1]: 454000 M⁻¹ s⁻¹
- Kd [2]: 0.02 nM
- koff [2]: 1.2e-05 s⁻¹
- kon [2]: 528000 M⁻¹ s⁻¹
- IC50 [3]: 0.084 nM

B2: h2G9.K4G1 (antibody, V domains shown)
VH: B1 VH with S53C, S55N, S100G
VL: B1 VL with S32D
notes: also called h2G9.K4G1 anti-Bv8 antibody
- IC50 [3]: 0.984 nM

B3: h2G9.K4G1.Polish Fab (Fab, V domains shown)
VH: B1 VH
VL: B1 VL
notes: also called polished K4G1
- IC50 (read off the curve) [4]: ~0.2 nM
- IC50 (read off the curve) [5]: ~0.2 nM
- Kd [6]: 1.44 nM
- koff [6]: 0.000689 s⁻¹
- kon [6]: 475000 M⁻¹ s⁻¹

B4: h2G9.K4G1.v55 IgG (antibody, V domains shown)
VH: B1 VH
VL: DIVMTQSPDSLAVSLGERATINCKASQSLDYYHYSYMNWYQQKPGQPPKLLIYAASNRESGVPDRFSGSGSGTDFTLTISSLQAEDVAVYYCQQINEDPFTFGQGTKVEIKR
notes: Variable domains only; IgG, constant regions not described; claims 8 and 9); also called humanized 2G9 variant 55
- kon [7]: 780000 M⁻¹ s⁻¹
- kon [1]: 775000 M⁻¹ s⁻¹
- Kd [8]: ≤ 0.005 nM
- koff [8]: ≤ 5e-06 s⁻¹
- kon [2]: 945000 M⁻¹ s⁻¹
- Kd [9]: < 0.006 nM
- koff [9]: < 5e-06 s⁻¹
- kon [10]: 950000 M⁻¹ s⁻¹
- IC50 [3]: 0.013 nM
- fold tighter binding than chimeric 2G9 [11]: ≥ 2 fold
- Kd [12]: ≤ 0.005 nM
- koff [12]: ≤ 5e-06 s⁻¹
- fold tighter binding than chimeric 2G9 [13]: > 2 fold

B5: h2G9.K4G1.v55 Fab (Fab, V domains shown)
VH: B1 VH
VL: B4 VL
notes: Variable domains only; claims 8 and 9)
- Kd [14]: 0.42 nM
- koff [14]: 0.000129 s⁻¹
- kon [14]: 310000 M⁻¹ s⁻¹
- IC50 (read off the curve) [5]: ~0.06 nM
- Kd [15]: 0.18 nM
- koff [15]: 7.2e-05 s⁻¹
- kon [15]: 396000 M⁻¹ s⁻¹
- Kd [6]: 0.28 nM
- koff [6]: 0.000136 s⁻¹
- kon [6]: 484000 M⁻¹ s⁻¹

B6: h2G9.K4G1.v19 IgG (antibody, V domains shown)
VH: B1 VH with F29L, D31N, S52H, A57S, T59L
VL: B4 VL with L29V, Y32S, H33G, Y34D, R58L
notes: Variable domains only; IgG, constant regions not described; claims 6 and 7); also called humanized 2G9 variant 19
- kon [1]: 501000 M⁻¹ s⁻¹
- Kd [8]: ≤ 0.007 nM
- koff [8]: ≤ 5e-06 s⁻¹
- kon [2]: 760000 M⁻¹ s⁻¹
- Kd [9]: < 0.009 nM
- koff [9]: < 5e-06 s⁻¹
- kon [10]: 760000 M⁻¹ s⁻¹
- IC50 [3]: 0.014 nM
- fold tighter binding than chimeric 2G9 [11]: ≥ 2 fold
- Kd [12]: ≤ 0.007 nM
- koff [12]: ≤ 5e-06 s⁻¹
- fold tighter binding than chimeric 2G9 [13]: > 2 fold

B7: h2G9.K4G1.v19 Fab (Fab, V domains shown)
VH: B1 VH with F29L, D31N, S52H, A57S, T59L
VL: B4 VL with L29V, Y32S, H33G, Y34D, R58L
notes: Variable domains only; claims 6 and 7)
- Kd [14]: 0.1 nM
- koff [14]: 2.8e-05 s⁻¹
- kon [14]: 267000 M⁻¹ s⁻¹
- IC50 (read off the curve) [4]: ~0.09 nM
- Kd [15]: 0.04 nM
- koff [15]: 1.6e-05 s⁻¹
- kon [15]: 359000 M⁻¹ s⁻¹
- Kd [6]: 0.08 nM
- koff [6]: 3.8e-05 s⁻¹
- kon [6]: 471000 M⁻¹ s⁻¹

B8: h2G9.K4G1 variant CDR-L1 G29S (Fab, V domains shown)
VH: B1 VH with S53C, S55N, S100G
VL: B1 VL with S32D, G33S
- IC50 (read off the curve) [5]: ~1 nM

Reference: patent publication US20120014941A1 (Hoffmann-La Roche, published 2012)
